# Test results as given in patent publication US20210316003A1 (Immunomedics, Inc., priority 2020, published 2021).
# Columns and labels:
# [1] = test system: patients with metastatic TNBC; assay: Phase I/II trial (NCT01631552), metastatic TNBC: efficacy by RECIST 1.1; format: in vivo, human
# Excerpt: Patients with relapsed/refractory TNBC who had previously failed at at least one prior line of therapy were enrolled in a single-arm, multicenter trial (Bardia et al., 2019, N Engl J Med 380:741-51). The present study reports on 108 patients who had failed at least two prior lines of therapy (median three prior therapies) (Bardia et al., 2019, N Engl J Med 380:741-51). […] For severe treatment-related adverse events, a 25% dose reduction was allowed after the first occurrence, 50% after the second and discontinuation after the third. Of the 108 patients, 107 were female and 1 was male, with a median age of 55. Prior therapies included treatment with taxanes (98%), anthracyclines (86%), platinum agents (69%), gemcitabine (55%), eribulin (45%) and checkpoint inhibitors (17%). Tumor staging was performed by computed tomography (CT) and MRI at baseline, followed up at 8 week intervals from the start of treatment until disease progression.
# [2] = test system: patients with diverse metastatic cancers; assay: Phase I trial and phase II extension in diverse epithelial cancers: best response and time to progression; format: in vivo, human
# Excerpt: The present Example reports the initial Phase I trial of 25 patients (pts) who had failed multiple prior therapies (some including topoisomcrasc-I/II inhibiting drugs), and the ongoing Phase II extension now reporting on 69 pts, including in colorectal (CRC), small-cell and non-small cell lung (SCLC, NSCLC, respectively), triple-negative breast (TNBC), pancreatic (PDC), esophageal, gastric, prostate, ovarian, renal, urinary bladder, head/neck and hepatocellular cancers. Patients were refractory/relapsed after standard treatment regimens for metastatic cancer. […]
# A total of 69 patients (including 25 patients in Phase I) with diverse metastatic cancers having a median of 3 prior therapies were reported. Eight patients had clinical progression and withdrew before CT assessment. Thirteen CT-assessable pancreatic cancer patients were separately reported. The median TTP (time to progression) in PDC patients was 11.9 wks (range 2 to 21.4 wks) compared to median 8 wks TTP for the preceding last therapy.
# A total of 48 patients with diverse cancers had at least 1 CT-assessment from which Best Response and Time to Progression (TTP) were determined. […] For SCLC (small cell lung cancer), of 4 assessable patients there were 2 PR, 0 SD and 2 PD for a total response of 2/4 (50%). For CRC (colorectal cancer), of 18 assessable patients there were 1 PR, 11 SD and 6 PD for a total response of 12/18 (67%). For esophageal cancer, of 4 assessable patients there were 1 PR, 2 SD and 1 PD for a total response of 3/4 (75%). For NSCLC (non-small cell lung cancer), of 5 assessable patients there were 1 PR, 3 SD and 1 PD for a total response of 4/5 (80%). Over all patients treated, of 48 assessable patients there were 7 PR, 27 SD and 14 PD for a total response of 34/48 (71%).
# [3] = test system: patients with diverse metastatic cancers; assay: Phase I trial and phase II extension in diverse epithelial cancers: related adverse events (CTCAE v 4.0); format: in vivo, human
# [4] = test system: patients with metastatic urothelial cancer (mUC); conditions: 10 mg/kg, cited from earlier work
# [5] = 48 assessable pts (excluding PDC)
# [6] = 48 assessable pts (excluding PDC), listed as hRS7-SN-38
# [7] = CRC, person, after 10 months of treatment
# [8] = esophageal cancer, 4 assessable patients
substance,measurement,setting,value
sacituzumab govitecan,Response rate among patients who had failed previous checkpoint inhibitor therapy,[1],44%
same,Complete responses (CR),"[1]; 10 mg/kg, N = 108",2.8%
same,Median overall survival,"[1]; 10 mg/kg, N = 108",13.0 months
same,Median progression-free survival,"[1]; 10 mg/kg, N = 108",5.5 months
same,Estimated probability that a patient would exhibit a response at 6 months,[1]; 36 responders,59.7%
same,Estimated probability that a patient would exhibit a response at 12 months,[1]; 36 responders,27.0%
same,Median duration of response,[1]; 36 responders,7.7 months
same,Median time to response,[1]; 36 responders,2.0 months
same,Patients with long-term responses of more than 12 months,[1]; at data cutoff,6
same,Response rate (CR+PR),"[1]; ≥2 prior lines, 10 mg/kg days 1 and 8 of 21 day cycle, N = 108",33.3%
same,"Partial response (PR), % of patients",[2]; [5],15%
same,"Stable disease (SD), % of patients",[2]; [5],56%
same,"Stable disease (SD), number of patients",[2]; [5],27
same,"Total response [PR+SD], % of patients",[2]; [5],79%
same,"Total response [PR+SD], number of patients",[2]; [5],38
same,"Total response [PR+SD], % of patients",[2]; [6],71%
same,"Total response [PR+SD], number of patients",[2]; [6],34/48
same,Total response [PR+SD],"[2]; CRC, 12/18",67%
same,"PD, number of patients","[2]; CRC, 18 assessable patients",6
same,"PR, number of patients","[2]; CRC, 18 assessable patients",1
same,"CEA after treatment (decrease from 781), single patient",[2]; [7],26.5 ng/mF
same,"Maximum reduction in target lesions, single patient",[2]; [7],65%
same,"Reduction in target lesions on first CT assessment (PR), single patient","[2]; CRC, person, starting dose 8 mg/kg",37%
same,Total response [PR+SD],"[2]; NSCLC, 4/5",80%
same,"PD, number of patients","[2]; NSCLC, 5 assessable patients",1
same,"PR, number of patients","[2]; NSCLC, 5 assessable patients",1
same,"Primary target lesion size at first CT (from 5.6 cm), single patient","[2]; NSCLC, person, after 6th dose",3.2 cm
same,Total response [PR+SD],"[2]; SCLC, 2/4",50%
same,"PD, number of patients","[2]; SCLC, 4 assessable patients",2
same,"PR, number of patients","[2]; SCLC, 4 assessable patients",2
same,"Reduction in target lesions, single patient","[2]; SCLC, person, 12 mg/kg reduced to 6.8 mg/kg, after two months",38%
same,Total response [PR+SD],"[2]; TNBC, 6/8",75%
same,"PD, number of patients","[2]; TNBC, 8 assessable patients",2
same,"PR, number of patients","[2]; TNBC, 8 assessable patients",2
same,"PD, number of patients","[2]; all, 48 assessable patients",14
same,"PR, number of patients","[2]; all, 48 assessable patients",7
same,Total response [PR+SD],"[2]; esophageal cancer, 3/4",75%
same,"PD, number of patients",[2]; [8],1
same,"PR, number of patients",[2]; [8],1
same,Diarrhea ≥G3,[3]; 49 pts reporting related AE,9%
same,Fatigue ≥G3,[3]; 49 pts reporting related AE,9%
same,Nausea ≥G3,[3]; 49 pts reporting related AE,0%
same,Neutropenia ≥G3,[3]; 49 pts reporting related AE,28%
same,Vomiting ≥G3,[3]; 49 pts reporting related AE,2%
same,"Abdominal pain, Grade 3, patients","[3]; related AE, N = 47",0
same,"Abdominal pain, Grade 4, patients","[3]; related AE, N = 47",0
same,"Abdominal pain, TOTAL","[3]; related AE, N = 47",11%
same,"Alopecia, TOTAL","[3]; related AE, N = 47",40%
same,"Anemia, Grade 3, %","[3]; related AE, N = 47",(4%)
same,"Anemia, Grade 3, patients","[3]; related AE, N = 47",2
same,"Anemia, Grade 4, patients","[3]; related AE, N = 47",0
same,"Anemia, TOTAL","[3]; related AE, N = 47",13%
same,"Deep vein thrombosis, Grade 3, %","[3]; related AE, N = 47",(2%)
same,"Deep vein thrombosis, Grade 3, patients","[3]; related AE, N = 47",1
same,"Deep vein thrombosis, Grade 4, patients","[3]; related AE, N = 47",0
same,"Deep vein thrombosis, TOTAL","[3]; related AE, N = 47",2%
same,"Diarrhea, Grade 3, %","[3]; related AE, N = 47",(9%)
same,"Diarrhea, Grade 3, patients","[3]; related AE, N = 47",4
same,"Diarrhea, Grade 4, patients","[3]; related AE, N = 47",0
same,"Diarrhea, TOTAL","[3]; related AE, N = 47",47%
same,"Dysgeusia, Grade 3, patients","[3]; related AE, N = 47",0
same,"Dysgeusia, Grade 4, patients","[3]; related AE, N = 47",0
same,"Dysgeusia, TOTAL","[3]; related AE, N = 47",15%
same,"Fatigue, Grade 3, %","[3]; related AE, N = 47",(9%)
same,"Fatigue, Grade 3, patients","[3]; related AE, N = 47",4
same,"Fatigue, Grade 4, patients","[3]; related AE, N = 47",0
same,"Fatigue, TOTAL","[3]; related AE, N = 47",55%
same,"Febrile Neutropenia, Grade 3, %","[3]; related AE, N = 47",(2%)
same,"Febrile Neutropenia, Grade 3, patients","[3]; related AE, N = 47",1
same,"Febrile Neutropenia, Grade 4, %","[3]; related AE, N = 47",4%
same,"Febrile Neutropenia, Grade 4, patients","[3]; related AE, N = 47",2
same,"Febrile Neutropenia, TOTAL","[3]; related AE, N = 47",6%
same,"Hypokalemia, Grade 3, %","[3]; related AE, N = 47",(2%)
same,"Hypokalemia, Grade 3, patients","[3]; related AE, N = 47",1
same,"Hypokalemia, Grade 4, patients","[3]; related AE, N = 47",0
same,"Hypokalemia, TOTAL","[3]; related AE, N = 47",11%
same,"Nausea, Grade 3, patients","[3]; related AE, N = 47",0
same,"Nausea, Grade 4, patients","[3]; related AE, N = 47",0
same,"Nausea, TOTAL","[3]; related AE, N = 47",53%
same,"Neutropenia, Grade 3, %","[3]; related AE, N = 47",(24%)
same,"Neutropenia, Grade 3, patients","[3]; related AE, N = 47",11
same,"Neutropenia, Grade 4, %","[3]; related AE, N = 47",4%
same,"Neutropenia, Grade 4, patients","[3]; related AE, N = 47",2
same,"Neutropenia, TOTAL","[3]; related AE, N = 47",43%
same,"Pyrexia, Grade 3, patients","[3]; related AE, N = 47",0
same,"Pyrexia, Grade 4, patients","[3]; related AE, N = 47",0
same,"Pyrexia, TOTAL","[3]; related AE, N = 47",13%
same,"Vomiting, Grade 3, %","[3]; related AE, N = 47",(2%)
same,"Vomiting, Grade 3, patients","[3]; related AE, N = 47",1
same,"Vomiting, Grade 4, patients","[3]; related AE, N = 47",0
same,"Vomiting, TOTAL","[3]; related AE, N = 47",32%
same,"WBC Decrease, Grade 3, %","[3]; related AE, N = 47",(2%)
same,"WBC Decrease, Grade 3, patients","[3]; related AE, N = 47",1
same,"WBC Decrease, Grade 4, patients","[3]; related AE, N = 47",0
same,"WBC Decrease, TOTAL","[3]; related AE, N = 47",6%
same,"Complete responses (CR), number",[4]; 35 mUC patients,2
same,"Confirmed partial responses (PR), number",[4]; 35 mUC patients,6
same,Objective response rate (ORR),[4]; 35 mUC patients,29%
same,"PR pending confirmation, number",[4]; 35 mUC patients,2
same,Treated patients with a reduction in tumor size,[4]; 35 mUC patients,Seventy-four
same,ORR in patients with liver metastases,[4]; mUC,25%
